{"source": "patent US10472652B2", "about": "“Chemical engineering processes and apparatus for the synthesis of compounds” (TEEWINOT T[…], priority 2013, dated 2019)", "molecules": {"B1": {"name": "THCA synthase: recombinant His-tagged tetrahydrocannabinolic acid synthase secreted by transformed Pichia pastoris yeast cells (protein, UniProt Q8GTB6 29-545, looked up)", "Tetrahydrocannabinolic acid …": "NPRENFLKCFSKHIPNNVANPKLVYTQHDQLYMSILNSTIQNLRFISDTTPKPLVIVTPSNNSHIQATILCSKKVGLQIRTRSGGHDAEGMSYISQVPFVVVDLRNMHSIKIDVHSQTAWVEAGATLGEVYYWINEKNENLSFPGGYCPTVGVGGHFSGGGYGALMRNYGLAADNIIDAHLVNVDGKVLDRKSMGEDLFWAIRGGGGENFGIIAAWKIKLVAVPSKSTIFSVKKNMEIHGLVKLFNKWQNIAYKYDKDLVLMTHFITKNITDNHGKNKTTVHGYFSSIFHGGVDSLVDLMNKSFPELGIKKTDCKEFSWIDTTIFYSGVVNFNTANFKKEILLDRSAGKKTAFSIKLDYVKKPIPETAMVKILEKLYEEDVGAGMYVLYPYGGIMEEISESAIPFPHRAGIMYELWYTASWEKQEDNEKHINWVRSVYNFTTPYVSQNPRLAYLNYRDLDLGKTNHASPNNYTQARIWGEKYFGKNFNRLVKVKTKVDPNNFFRNEQSIPPLPPHHH", "modifications": "His tag", "notes": "recombinant His-tagged tetrahydrocannabinolic acid synthase secreted by transformed Pichia pastoris yeast cells"}, "B2": {"name": "Spe THC #3: cell free supernatant with THCA synthase from a pPink yeast colony transformed with Spe I linearized THCA synthase plasmid (protein, UniProt Q8GTB6 29-545, looked up)", "Tetrahydrocannabinolic acid …": "B1 Tetrahydrocannabinolic acid …", "modifications": "yeast culture supernatant", "notes": "cell free supernatant with THCA synthase from a pPink yeast colony transformed with Spe I linearized THCA synthase plasmid"}, "B3": {"name": "Spe THC #4: cell free supernatant with THCA synthase from a pPink yeast colony transformed with Spe I linearized THCA synthase plasmid (protein, UniProt Q8GTB6 29-545, looked up)", "Tetrahydrocannabinolic acid …": "B1 Tetrahydrocannabinolic acid …", "modifications": "yeast culture supernatant", "notes": "as for B2"}, "B4": {"name": "Spe THC #22: cell free supernatant with THCA synthase from a pPink yeast colony transformed with Spe I linearized THCA synthase plasmid (protein, UniProt Q8GTB6 29-545, looked up)", "Tetrahydrocannabinolic acid …": "B1 Tetrahydrocannabinolic acid …", "modifications": "yeast culture supernatant", "notes": "as for B2"}, "B5": {"name": "Spe THC #23: cell free supernatant with THCA synthase from a pPink yeast colony transformed with Spe I linearized THCA synthase plasmid (protein, UniProt Q8GTB6 29-545, looked up)", "Tetrahydrocannabinolic acid …": "B1 Tetrahydrocannabinolic acid …", "modifications": "yeast culture supernatant", "notes": "as for B2"}}, "assay_type_in_all_cases": "biochemical", "key": {"THCA synthase [1]": {"target": "T1, THCA synthase (Cannabis sativa, UniProt Q8GTB6)", "T1 construct": "His-tag (C); made in house; host or cells: Pichia pastoris (PichiaPink, pPink-HC vector), secreted into the medium; cell-free T3 supernatant used", "T1 sequence (Q8GTB6 29-545)": "B1 Tetrahydrocannabinolic acid …", "assay": "effect of concentration of non-aqueous solvent (DMSO) on THCA synthase catalytic rate and THCA:CBCA product ratio", "procedure": "Accordingly, the effects of temperature, pH, solvent, ionic strength and incubation times on the distribution ratio of THCA to CBCA products were studied. In one embodiment, the effect of solvent on product distribution ratio was evaluated. Cannabinoids are lipohilic in nature and are poorly solubilized in aqueous solvents. The poor solubility of cannabinoids in aqueous solvent has prevented the development of ex-vivo enzyme catalyzed methodologies for the synthesis of cannabinoids and cannabinoid analogs.\nThe catalytic rate […] slightly as concentration of the non-aqueous solvent is increased. Thus, 20% DMSO gave the highest catalytic rate, approximately 2.5-fold faster than catalysis in buffer alone. Table 1 illustrates the effect of concentration of non-aqueous solvent on the rate of catalytic activity.\nAs further illustrated in this table, the concentration of non-aqueous solvent can alter the ratio of THCA to CBCA produced as product. Thus, greater levels of THCA are obtained when the concentration of DMSO in buffer is less that 20%, with a THCA:CBCA distribution ratio of 10:1 observed when 10% DMSO is used as the solvent."}, "THCA synthase [2]": {"target": "T1, THCA synthase", "assay": "pH study: ratio of THCA to CBCA produced when THCA synthase is contacted with CBGA", "procedure": "Table 3 illustrates the results of a pH study that was aimed at identifying the effect of pH on product ratio, namely, the ratio of THCA to CBCA compounds produced when THCA synthase is contacted with CBGA as substrate. The pH of the reaction mixture in this study ranged from a pH of 4.0 to 8.0.\nIn fact, THCA is the major product when catalysis is carried out at a pH of 4.0. Increasing the pH of the reaction mixture altered the product distribution ratio with approximately 30% CBCA being produced as product at a pH of 5.0 and around […] CBCA being produced as product at a pH value of 6.0. A further increase in pH of the reaction mixture, such as an increase of the pH of the reaction mixture to a pH of 7.0 gave CBCA exclusively as the product of THCA synthase catalyzed conversion of CBGA. Any further increases in pH, moreover, reduced or eliminated catalytic activity of THCA synthase, with no product observed for a reaction mixture at a pH of 8.0."}, "THCA synthase [3]": {"target": "T1, THCA synthase", "assay": "effect of detergent SDS on THCA synthase conversion of CBGA", "conditions": "SDS added to 100 mM citrate buffer containing cyclodextrin", "procedure": "In contrast, addition of SDS to 100 mM citrate buffer containing cyclodextrin destroyed THCA synthases ability to catalyze reaction. Only 8% of the substrate was converted to product under these reaction conditions with the formation of THCA being favored as product under these reaction conditions."}, "THCA synthase [4]": {"target": "T1, THCA synthase", "assay": "catalytic activity of THCA synthase from independent colonies of transformed pPink yeast cells (conversion of CBGA to THCA)", "conditions": "25 μl cell free supernatant of T3 sample, 100 mM citrate buffer, 10% DMSO, final pH 5.0, 2 hours at 30° C.", "procedure": "After 24 hours a 100 μL of the cell sample was removed to which was added 100 μL of 40% methanol to induce enzyme production. This methanolic sample was then centrifuged at 12,000 rpm for 5 minutes and the supernatant and pellet were saved as the T1 sample. A second culture sample was obtained after a 48 hour incubation period and treated with methanol as described above. After centrifugation, the supernatant and pellet are saved as the T2 sample. At 72 hours the entire incubation mixture is treated with an appropriate volume of 40% methanol. The supernatant and pellet obtained from methanolic treatment of the culture after a 72 hour incubation period is labeled as T3. The T3 supernatant was spun through an Amicon 30 kD protein filter and analyzed for protein using an SDS-PAGE gel.\nThe catalytic activity of THCA synthase was measured by incubating 25 μl of the cell free supernatant from a T3 sample with 25 μl of a 1 mg/ml CBGA stock in 200 μl of a 100 mM citrate buffer at pH 4.8 having 10% DMSO for 2 hours at 30° C. The final concentration of CBGA in the reaction mixture was 0.1 mg/ml and the final pH is 5.0. Table 4 illustrates the data related to the catalytic activity of THCA synthase obtained from independent colonies of transformed pPink yeast cells, namely. pPink yeast cells that were transformed using linearized THCA synthase plasmids. Culture samples that converted greater than 20% of the substrate CBGA to product THCA were selected for scale up."}}, "data": [{"molecule": "B1", "values": [{"measurement": "FASTER (catalytic rate relative to buffer alone)", "setting": "THCA synthase [1]; DMSO 0%", "result": 1, "unit": "X"}, {"measurement": "FASTER (catalytic rate relative to buffer alone)", "setting": "THCA synthase [1]; DMSO 10%", "result": 1.2, "unit": "X"}, {"measurement": "FASTER (catalytic rate relative to buffer alone)", "setting": "THCA synthase [1]; DMSO 30%", "result": 0.3, "unit": "X"}, {"measurement": "CBCA (share of product)", "setting": "THCA synthase [2]; pH 4, substrate CBGA", "result": "Trace"}, {"measurement": "THCA (share of product)", "setting": "THCA synthase [2]; pH 4, substrate CBGA", "result": 100, "unit": "%"}, {"measurement": "THCA (share of product)", "setting": "THCA synthase [2]; pH 5, substrate CBGA", "result": 70, "unit": "%"}, {"measurement": "THCA (share of product)", "setting": "THCA synthase [2]; pH 6, substrate CBGA", "result": 85, "unit": "%"}, {"measurement": "CBCA (share of product)", "setting": "THCA synthase [2]; pH 7, substrate CBGA", "result": 100, "unit": "%"}, {"measurement": "THCA (share of product)", "setting": "THCA synthase [2]; pH 7, substrate CBGA", "result": 0, "unit": "%"}, {"measurement": "CBCA (share of product)", "setting": "THCA synthase [2]; pH 8, substrate CBGA", "result": 0, "unit": "%"}, {"measurement": "THCA (share of product)", "setting": "THCA synthase [2]; pH 8, substrate CBGA", "result": 0, "unit": "%"}, {"measurement": "substrate converted to product", "setting": "THCA synthase [3]", "result": 8, "unit": "%"}]}, {"molecule": "B2", "values": [{"measurement": "% Conversion of CBGA to THCA in reaction containing 0.1 mg/ml CBGA.", "setting": "THCA synthase [4]", "result": 20.6, "unit": "%"}]}, {"molecule": "B3", "values": [{"measurement": "% Conversion of CBGA to THCA in reaction containing 0.1 mg/ml CBGA.", "setting": "THCA synthase [4]", "result": 28.7, "unit": "%"}]}, {"molecule": "B4", "values": [{"measurement": "% Conversion of CBGA to THCA in reaction containing 0.1 mg/ml CBGA.", "setting": "THCA synthase [4]", "result": 20.6, "unit": "%"}]}, {"molecule": "B5", "values": [{"measurement": "% Conversion of CBGA to THCA in reaction containing 0.1 mg/ml CBGA.", "setting": "THCA synthase [4]", "result": 18.7, "unit": "%"}]}]}
